In publication PMC3162478 (Nature, 2011):

Assays:
[1] = molecular target: T1, FimD usher, full-length (undigested), with C-terminal Strep-tag II (Escherichia coli, UniProt P30130 46-878); test: AUC
T1 sequence: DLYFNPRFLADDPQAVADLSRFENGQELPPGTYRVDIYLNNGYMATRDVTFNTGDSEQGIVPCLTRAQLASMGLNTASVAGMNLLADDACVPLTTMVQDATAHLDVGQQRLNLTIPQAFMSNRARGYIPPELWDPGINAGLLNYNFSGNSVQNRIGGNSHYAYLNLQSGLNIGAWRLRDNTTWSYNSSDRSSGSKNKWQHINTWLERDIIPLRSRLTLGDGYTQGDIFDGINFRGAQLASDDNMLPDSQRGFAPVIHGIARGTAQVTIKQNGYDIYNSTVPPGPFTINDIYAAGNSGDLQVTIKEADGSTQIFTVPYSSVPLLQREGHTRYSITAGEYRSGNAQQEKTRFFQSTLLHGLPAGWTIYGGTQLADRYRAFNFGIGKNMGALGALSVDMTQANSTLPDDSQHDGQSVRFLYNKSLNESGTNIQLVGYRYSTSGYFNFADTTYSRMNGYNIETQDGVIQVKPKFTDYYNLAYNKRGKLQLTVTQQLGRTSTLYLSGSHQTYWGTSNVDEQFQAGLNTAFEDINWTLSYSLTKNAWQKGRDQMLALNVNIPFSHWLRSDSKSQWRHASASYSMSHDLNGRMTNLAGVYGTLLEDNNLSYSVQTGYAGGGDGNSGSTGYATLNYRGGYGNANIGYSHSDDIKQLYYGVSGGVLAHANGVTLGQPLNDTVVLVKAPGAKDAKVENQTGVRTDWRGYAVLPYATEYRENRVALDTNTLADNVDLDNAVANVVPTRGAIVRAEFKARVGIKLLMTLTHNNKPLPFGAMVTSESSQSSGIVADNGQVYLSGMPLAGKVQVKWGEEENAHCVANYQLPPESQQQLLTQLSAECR

FimH adhesin = FimH adhesin (Escherichia coli, UniProt P08191 22-300); test: AUC
Chain of FimH adhesin (P08191 22-300): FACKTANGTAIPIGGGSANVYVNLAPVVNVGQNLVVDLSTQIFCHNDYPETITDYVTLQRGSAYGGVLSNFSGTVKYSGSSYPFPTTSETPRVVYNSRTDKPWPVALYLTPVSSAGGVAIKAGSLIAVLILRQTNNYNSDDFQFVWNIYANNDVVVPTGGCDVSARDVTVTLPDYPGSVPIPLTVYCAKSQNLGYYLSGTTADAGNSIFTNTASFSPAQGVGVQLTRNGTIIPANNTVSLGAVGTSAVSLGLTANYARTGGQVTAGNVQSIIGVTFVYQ

B1: FimC chaperone (His-tagged, from pETS1001 fimCHisH) (natural protein)
chain: GVALGATRVIYPAGQKQEQLAVTNNDENSTYLIQSWVENADGVKDGRFIVTPPLFAMKGKKENTLRILDATNNQLPQDRESLFWMNVKAIPSMDKSKLTENTLQLAIISRIKLYYRPAKLALPPDQAAEKLRFRRSANSLTLINPTPYYLTVTELNAGTRVLENALVPPMGESTVKLPSDAGSNITYRTINDYGALTPKMTGVME
stoichiometry N [1]: 1
stoichiometry N (FimH adhesin): 1
